Results on 2 molecules are retold here after US20130035289A1, “PHARMACEUTICAL COMPOSITION FOR TREATMENT OF THROMBOSIS-RELATED DISEASES COMPRISING A FRAGMENT OF PROLACTIN (PRL)-GROWTH HORMONE (GH)-PLACENTAL LACTOGEN (PL)-FAMILY PROTEIN” (UNIVERSITE DE LIEGE, priority 2010, published 2013).

In test [1] the target is T1, PAI-1 (Homo sapiens, UniProt P05121).
T1 construct: gift of Pr; P. Declerck
The test can be described thus: Inhibition of PAI-1 anti-proteolytic activity, uPA/plasminogen chromogenic (colorimetric) assay. In kind it is biochemical. The conditions noted are these: uPA, bovine plasminogen, PAI-1, absorbance 405 nm. Here is the method: The main physiological function of PAI-1 is to inhibit uPA and tPA proteolytic activity. […] A chromogenic substrate for plasmin (Spectrozyme PL: 0.5 mM. American Diagnostica INC) in PBS was added to the mixture in 96-well microtitration plates and kept at room temperature. The release of free p-nitro-aniline from the chromogenic substrate was measured spectrophotometrically. The activity of plasmin was determined as the absorbance at 405 nm.

In a further test the target is T2, PAI-1/tPA complex (Homo sapiens, UniProt P05121).
T2 construct: purchased Calbiochem (tPA); PAI-1 a gift of Pr; P. Declerck
The test can be described thus: Complex formation between PAI-1 and tPA by SDS-PAGE (silver staining). It counts as biochemical. The note with it: PAI-1 pre-incubated 10 min at 37° C. with 16K hPRL (5 μg) or 14K hGH (4 μg), then tPA. Here is the method:
tPA/PAI-1 complex was formed 10 min after their incubation at 37° C. Pre-incubation of PAI-1 (4 μg) with 16K hPRL (5 μg) or 14K hGH (4 μg) during 10 min at 37° C., followed by a second 10 min incubation with tPA (2 μg) was stopped by the addition of sample buffer containing 5% β-Mercaptoethanol. Samples are heated at 95° C. before being analysed by SDS-PAGE. Silver staining was performed on the gel to visualize protein bands and complexes.

Test [2] addresses T3, PAI-1 (Mus musculus, UniProt P22777).
T3 construct: from tissue; host or cells: BalbC Njrj mice, in vivo (blood)
T3 sequence (P22777 23-402): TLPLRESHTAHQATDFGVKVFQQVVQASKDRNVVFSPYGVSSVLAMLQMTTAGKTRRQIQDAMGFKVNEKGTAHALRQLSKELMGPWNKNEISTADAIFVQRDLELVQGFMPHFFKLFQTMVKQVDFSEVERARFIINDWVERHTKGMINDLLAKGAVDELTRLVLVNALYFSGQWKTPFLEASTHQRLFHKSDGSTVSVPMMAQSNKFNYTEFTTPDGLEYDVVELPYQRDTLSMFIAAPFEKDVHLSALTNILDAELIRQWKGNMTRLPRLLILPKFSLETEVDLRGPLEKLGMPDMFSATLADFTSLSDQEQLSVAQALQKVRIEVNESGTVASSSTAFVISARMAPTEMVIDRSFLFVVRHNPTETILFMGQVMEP
The test can be described thus: Co-immunoprecipitation with anti-PAI-1 antibody and Western blot, mouse PAI-1. In kind it is binding. The note with it: for interaction with PAI-1 in plasma samples: mouse plasma. Here is the method: The interaction was further confirmed by pull-down affinity assays. For the immunoprecipitation 4 μg of recombinant 16K hPRL or 14 hGH were mixed with 3 μg of recombinant wt PAI-1, 500 μl of conditioned media from HUVEC cells, 300 μl of human plasma or 100 μl of mouse plasma. The mixtures were incubated for 10 min at 37° C. 6 μg of mouse monoclonal antibody against PAI-1 (clone 33H1F7, recognize human and mouse PAI-1) was added to each tube and incubated overnight at 4° C. under rotation. For the experiments with mice expressing 16K hPRL, 300 μl of plasma from mice injected with Null-Ad or 16K-Ad adenovirus were collected 5 days after virus injection, and immunoprecipitation was performed as described above with same PAI-1 monoclonal antibody (33H1F7). Fifty microliters of protein A agarose was added to the mix and incubated overnight at 4° C. under rotation. After centrifugation for 1 min at 6000 rpm the supernatants were discarded and the pellets (containing the beads) were washed 5 times with PBS. After a new centrifugation, the beads were resuspended in 30 μl 1×β-mercaptoethanol loading buffer and boiled at 100° C. for 5 min, then left on ice for 5 min. The beads were centrifuged for 5 min at 4° C., then the supernatants were subjected to SDS-PAGE (12% acrylamide) for Western blot analysis.
For Western Blot Analysis cytoplasmic cell lysate, samples of different CoIP and mouse plasma were separated by SDS-PAGE (12% and 10%) and transferred to a polyvinylidene fluoride membrane (Milipore Corp., Bedford, Mass.). Blots were blocked overnight with 5% milk in Tris-buffered saline with 0.1% Tween 20 and probed for 1 h at RT with primary antibodies: rabbit polyclonal anti-hPRL (DAKO) or rabbit polyclonal anti hGH (home made). After three washes with Tris-buffered saline containing 0.1% Tween 20, antigen-antibody complexes were detected with peroxidase-conjugated goat anti-rabbit secondary antibody and an enhanced fluoro-chemiluminescent system (ECL-plus; Amersham Biosciences, Arlington Heights, Ill.).
(Immunoblotting shows a protein as a band on a membrane.)

The target of a further test is T4, uPA (Homo sapiens, UniProt P00749+P05121).
T4 construct: endogenous in cells; host or cells: HUVEC
The test can be described thus: In situ proximity ligation assay (PLA) on HUVECs. It counts as cell-based. Here is the method:
HUVECs were grown on gelatin-coated glass coverslips. After incubation for 2 h with 14K GH (50 nM) or 16K PRL (50 nM), the cells were washed with PBS at room temperature and fixed with 4% paraformaldehyde for 15 min, blocked, permeabilized and incubated overnight with mouse anti uPA (American Diagnostica Inc. Greenwich, Conn.) diluted 1/100 and rabbit anti prolactin (Dako) diluted 1/100, or rabbit anti human GH (home made) diluted 1/100. PLA was performed according to the manufacturer's instructions using the Duolink Detection Kit 563 (Olink Bioscience) with anti-mouse MINUS and anti-rabbit PLUS PLA probes. DAPI nucleus stain was added to the mounting media and the slides were analyzed by fluorescence microscopy.

The subject of another test is endothelial cells. The test can be described thus: Endothelial cell proliferation (BrdU incorporation). It counts as cell-based, bovine. The note with it: for anti-proliferative function: down-regulation of PAI-1 expression by si-RNA; for anti-proliferation effect: recombinant wild type PAI-1 added to culture medium. As for the experimental part: The cells were plated in 96-well culture plates at a density of 2,500 cells per well in 10% FCS/DMEM and allowed to adhere for 24 h. Then complete medium was replaced with SFM for 24 h. […] Proliferation was analysed 24 h later by measuring BrdU incorporation by means of the Cell Proliferation ELISA, BrdU (Colorimetric) (Roche, Clinical Laboratories, Indianapolis, Ind.). […] ID NO: 35); PAI-1 […] ID NO: 36).
For orientation: Uptake of a labelled nucleoside into DNA is a usual measure of proliferation.

A further test relates to ABAE cells. The test can be described thus: Endothelial cell migration (wound assay). It counts as cell-based, bovine. The note with it: for anti-migratory function: down-regulation of PAI-1 expression by si-RNA. Here is the method:
A layer of confluent ABAE cells in a 48-well tissue culture dish coated with 0.2% gelatin was wounded with a head of 200-μl tips. The experiment was performed in the presence of 50 ng/ml VEGF and 10 ng/ml bFGF. […] ID NO: 35); PAI-1 […] ID NO: 36).

The mark [3] stands for this setting: PAI-1 si-RNA transfected cells plus added human PAI-1.
[4] abbreviates: recombinant wild type PAI-1 added to culture medium.

T1 sequence (P05121 24-402): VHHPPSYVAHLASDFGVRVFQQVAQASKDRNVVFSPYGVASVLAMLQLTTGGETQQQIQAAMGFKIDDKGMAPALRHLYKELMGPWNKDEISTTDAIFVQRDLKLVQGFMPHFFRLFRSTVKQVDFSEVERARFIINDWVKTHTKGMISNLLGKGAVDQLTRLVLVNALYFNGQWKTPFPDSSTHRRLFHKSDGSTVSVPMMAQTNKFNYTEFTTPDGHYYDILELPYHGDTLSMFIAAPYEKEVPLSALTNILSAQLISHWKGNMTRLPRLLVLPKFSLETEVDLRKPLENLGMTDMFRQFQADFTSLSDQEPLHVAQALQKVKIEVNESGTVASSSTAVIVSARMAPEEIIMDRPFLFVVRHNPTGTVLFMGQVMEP
T2 sequence (P05121 24-402, one chain of several): as the sequence (P05121 24-402) above

B1: 16K hPRL: 16K N-terminal human prolactin fragment, recombinant, produced and purified from E. coli (protein)
chain: LPICPGGAARCQVTLRDLFDRAVVLSHYIHNLSSEMFSEFDKRYTHGRGFITKAINSCHTSSLATPEDKEQAQQMNQKDFLSLIVSILRSWNEPLYHLVTEVRGMQEAPEAILSKAVEIEEQTKRLLEGMELIVSQVHP
As to B1, in the test with PAI-1 [1], the “inhibition of PAI-1 function to inhibit uPA and tPA proteolytic activity” value is recorded as “significantly inhibited”. In addition, in the test with PAI-1/tPA complex, the PAI-1/tPA complex formation entry is listed as “partially inhibit”. The “interaction with PAI-1 in plasma samples” value in the test with PAI-1 [2] is “interaction was also demonstrated”. Besides, in the test with PAI-1 [2] (plasma of wild type mice 5 days after 16K-Ad injection), the “complex with endogenous murine PAI-1 in circulation” value is reported as “complex formation”. Also, the “distance between uPA and 16K PRL” value with uPA is listed as “less than 40 nm”. In the test on endothelial cells, the anti-proliferative function result was “reduced significantly” and the anti-proliferation effect result is given as “reduced significantly”. The anti-migratory effect result with ABAE cells (setting [3]) is “restored”. Further, the anti-migratory function result in the test with ABAE cells is “reduced significantly”. For the same molecule, in the test on ABAE cells (setting [4]), the anti-migratory effect entry was “reduced significantly”.

B2: 14K hGH: 14K N-terminal fragment of human growth hormone, recombinant, produced and purified from E. coli (protein)
chain: MFPTIPLSRLFDNAMLRAHRLHQLAFDTYQEFEEAYIPKEQKYSFLQNPQTSLSFSESIPTPSNREETQQKSNLELLRISLLLIQSWLEPVQFLRSVFANSLVYGASDSNVYDLLKDLEEGIQTLMGRLEDGSP
B2: in the test with PAI-1 [1], the “inhibition of PAI-1 function to inhibit uPA and tPA proteolytic activity” value is on record as “significantly inhibited”. Also, the PAI-1/tPA complex formation result with PAI-1/tPA complex was “completely abolished”. In addition, the “interaction with PAI-1 in plasma samples” value with PAI-1 [2] was “interaction was also demonstrated”. In addition, in the test on endothelial cells, the anti-proliferative function entry was “reduced significantly” and the anti-proliferation effect result was “reduced significantly”. In the test on ABAE cells (setting [3]), the anti-migratory effect result is given as “restored”. The anti-migratory function entry in the test on ABAE cells is “reduced significantly”. Further, the anti-migratory effect entry in the test on ABAE cells (setting [4]) was “reduced significantly”.
